Assay results published in CN111635459A (BEIJING GUANGWEI BIOTECHNOLOGY CO LTD, dated 2020).

What was measured:
人CD47抗原蛋白 = target: T1, 人CD47抗原蛋白 (human, UniProt Q08722 19-139, limits assumed); assay: SPR (Biacore 3000), antibody captured by anti-human Fc on CM5 chip, CD47 antigen 200-3.125 nM as analyte
T1 construct: The construct is not described; also called CD47蛋白

U937细胞表面的CD47 = target: T2, U937细胞表面的CD47 (human, UniProt Q08722 19-323); assay: flow cytometry on U937 cells, blocking of FITC-SIRPα (100 ng/mL) binding to cell-surface CD47; antibody 0.03-50 μg/mL
T2 construct: whole, on cells; also called CD47 on U937 cells
T2 sequence (Q08722 19-323): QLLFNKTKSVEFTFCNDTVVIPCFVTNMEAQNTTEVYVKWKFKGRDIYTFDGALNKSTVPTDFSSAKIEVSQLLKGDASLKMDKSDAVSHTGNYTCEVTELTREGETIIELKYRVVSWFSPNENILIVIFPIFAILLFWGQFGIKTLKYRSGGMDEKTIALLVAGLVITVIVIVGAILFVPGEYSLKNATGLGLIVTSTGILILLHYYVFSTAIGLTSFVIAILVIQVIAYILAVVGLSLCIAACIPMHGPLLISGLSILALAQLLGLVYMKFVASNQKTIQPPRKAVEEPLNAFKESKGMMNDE

T1 sequence (Q08722 19-139 limits assumed): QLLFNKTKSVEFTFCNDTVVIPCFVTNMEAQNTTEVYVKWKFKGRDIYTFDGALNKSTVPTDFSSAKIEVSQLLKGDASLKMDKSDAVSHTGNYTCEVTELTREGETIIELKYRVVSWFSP

B1: 对照抗体W3452-1.164.16-z11 (antibody, V domains shown)
VH: QVQLQESGPGLVKPSETLSLTCTVSGFSLTNYHVYWIRQPPGKGLEWIGVMWNHGDTSYNSPLKSRVTISVDTSKSQFSLKLSSVTAADTAVYYCARGGYVPDYWGQGTMVTVSS
VL: DIVMTQSPLSLPVTPGEPASISCRSSQSLVHSNAKTYLHWYLQKPGQSPQLLIYRVSNRFSGVPDRFSGSGSGTDFTLKISRVEAEDVGVYYCLQTTHFPYTFGQGTKLEIK
- Kd (人CD47抗原蛋白): 0.0934 nM
- koff (人CD47抗原蛋白): 3.84e-05 s⁻¹
- kon (人CD47抗原蛋白): 411000 M⁻¹ s⁻¹
- IC50 (U937细胞表面的CD47): 1.37 µg/mL
